Values of other authors in paper PMC5519506 (Molecular pharmaceutics, 2016).
Read-outs that look alike come from different tables or passages of the source.

Assays:
[1] = tested on: EGFR^high tumor; details: ref [28], cited from earlier work; for tumor:muscle ratio / tumor:blood ratio: fibronectin
[2] = fibronectin; ref [28]; cited from earlier work

**Q.** With fibronectin as the substance, how does the tumor accumulation ([1]; 1 h, second of two values) read?
**A.** 2.4 ± 1.0 %ID/g

**Q.** What about the tumor accumulation ([1]; 1 h) of the same substance?
**A.** 3.4 ± 1.0 %ID/g

**Q.** And the “tumor:muscle ratio” value ([1]; 1 h, PET)?
**A.** 8.6 ± 3.0

**Q.** And the “tumor:muscle ratio” value ([1]; 1 h, excised tissue)?
**A.** 10 ± 4

**Q.** And the “tumor:blood ratio” value ([1]; 1 h)?
**A.** 8.9 ± 4.7

**Q.** What about the “tumor:muscle ratio” value ([1]; 4 h, excised tissue) of the same substance?
**A.** 4.2 ± 1.3

**Q.** And the “tumor:blood ratio” value ([1]; 4 h)?
**A.** 6.4 ± 4.3

**Q.** What about the clearance half-time [2] of the same substance?
**A.** 2.1 ± 0.3 min
